{"source": "patent US20120183532A1", "target": "IL-1β receptor of the hepatic sinusoidal endothelium (HSE) cells (mouse) (UniProt P13504)", "sequence (P13504 20-576)": "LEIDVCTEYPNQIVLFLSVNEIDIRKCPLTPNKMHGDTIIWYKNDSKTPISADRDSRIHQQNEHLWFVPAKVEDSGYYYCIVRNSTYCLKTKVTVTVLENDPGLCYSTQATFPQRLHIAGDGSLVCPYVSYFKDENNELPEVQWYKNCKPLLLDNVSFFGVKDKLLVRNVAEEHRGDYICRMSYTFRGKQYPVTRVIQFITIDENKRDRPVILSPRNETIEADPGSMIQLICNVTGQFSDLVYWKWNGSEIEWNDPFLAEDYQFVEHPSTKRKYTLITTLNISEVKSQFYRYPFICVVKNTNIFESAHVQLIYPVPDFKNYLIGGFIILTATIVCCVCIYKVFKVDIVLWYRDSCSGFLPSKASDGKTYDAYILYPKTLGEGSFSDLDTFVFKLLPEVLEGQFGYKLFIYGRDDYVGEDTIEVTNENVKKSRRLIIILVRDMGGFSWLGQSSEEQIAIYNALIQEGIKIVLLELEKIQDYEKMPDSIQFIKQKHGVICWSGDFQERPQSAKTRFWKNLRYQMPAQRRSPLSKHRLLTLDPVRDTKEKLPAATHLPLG", "test": "cell-based or functional assay"}
{"substance": "recombinant C. albicans Kre9 (CaKre9) protein expressed in E. coli, fused to an HSV tag and 6 histidine residues (from UniProt O74226 22-271)", "values": [{"measurement": "increase of the tumor adhesion (B16M cells) to the HSE with respect to the control", "value": "> 150", "unit": "%"}]}
